Laboratory results published in paper PMC9164213 (Nature, 2021).

B1: GsuCas2 (Geobacter sulfurreducens Cas2), tag cleaved (natural protein)
chain: MEHLYIVSYDIRNQRRWRRLFKTMHGFGCWLQLSVFQCRLDRIRIIKMEAAINEIVNHAEDHVLILDLGPAENVKPKVSSIGKTFDPILRQAVIV
B2: GsuCas4/Cas1 (Geobacter sulfurreducens type I-G Cas4/Cas1 natural fusion), tag cleaved (natural protein)
chain: MAETDGSIPLIPVRMLNEHVYCPRLAYLMWVQGEFSHNEFTVDGVIRHRRVDAGGGVLPSETQEDSRIHARSVSLSSERLGITAKIDLVEGEGAYVSPVDYKRGKRPHVAGGAYEPERVQLCAQGLLLREHGFASDGGALYFVASRERVPVAFDDELIGRTLAAIDEMGRTALSGTMPPPLEDSPKCPRCSLVGICLPDEVRFLSHLSVEPRPIIPADGRGLPLYVQSPKAYVRKDGDCLVIEEERVRVAEARLGETSQVALFGNATLTTAALHECLRREIPVTWLSYGGWFMGHTVSTGHRNVETRTYQYQRSFDPETCLNLARRWIVAKIANCRTLLRRNWRGEGDEAKAPPGLLMSLQDDMRHAMRAPSLEVLLGIEGASAGRYFQHFSRMLRGGDGEGMGFDFTTRNRRPPKDPVNALLSFAYAMLTREWTVALAAVGLDPYRGFYHQPRFGRPALALDMMEPFRPLIADSTVLMAINNGEIRTGDFVRSAGGCNLTDSARKRFIAGFERRMEQEVTHPIFKYTISYRRLLEVQARLLTRYLSGEIPAYPNFVTR

Biological target: the molecule itself
Assay: cryo-EM structure

Protein | stoichiometry N
B1 | 2
B2 | 2
